Results published in patent US20230303690A1 (published 2023).

Biological target: T1, human LAG3 expressed on cells (human, UniProt P18627 23-525)
T1 construct: whole, on cells
T1 sequence (looked up): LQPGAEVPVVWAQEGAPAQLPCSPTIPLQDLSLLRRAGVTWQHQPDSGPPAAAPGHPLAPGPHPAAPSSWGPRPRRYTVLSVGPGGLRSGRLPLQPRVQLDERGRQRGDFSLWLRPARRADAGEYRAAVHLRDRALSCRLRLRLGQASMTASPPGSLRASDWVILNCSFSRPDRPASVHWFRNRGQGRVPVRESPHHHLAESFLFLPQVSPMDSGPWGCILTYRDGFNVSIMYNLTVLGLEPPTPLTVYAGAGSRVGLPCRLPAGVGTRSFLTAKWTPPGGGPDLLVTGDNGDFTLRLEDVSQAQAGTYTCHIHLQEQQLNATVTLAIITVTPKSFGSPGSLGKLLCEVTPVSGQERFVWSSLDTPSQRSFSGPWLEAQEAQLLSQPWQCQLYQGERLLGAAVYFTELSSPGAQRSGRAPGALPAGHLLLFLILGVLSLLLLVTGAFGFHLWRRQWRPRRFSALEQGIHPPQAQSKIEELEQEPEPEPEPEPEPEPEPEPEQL
Test: cell ELISA, 293T-hLAG3 cells
Protocol: Each well was treated with stimulants. The cells were then fixed and blocked with Blocking buffer. The Primary antibodies were added. The wells were washed and a HRP-conjugated secondary antibody was added. The wells were washed with 1x PBS and a solution containing TMB (Biopanda, TMB-S-004) was added. The TMB reacted with HRP to change the color thereof from colorless to blue. An acid stop solution (Solarbio, C1058) was then added to stop the reaction and change the blue color to yellow.
Materials are listed below: [0072] […] 2) Blocking buffer: 1×PBS+3% BSA (Sigma, B2064); [0074] […] [0075] 4) Secondary antibody: Goat anti-human IgG1 Fc antibody, HRP (1:2500, invitrogen, A18817). [0076]

Binder	EC50 [nM]	OD450 at 0.0045725 ug/ml	OD450 at 0.0137174 ug/ml	OD450 at 0.0411523 ug/ml	OD450 at 0.1234568 ug/ml	OD450 at 0.3703704 ug/ml	OD450 at 1.111111 ug/ml	OD450 at 3.333333 ug/ml	OD450 at 10 ug/ml
sdAb No. 27 (VHH, Fc of the tested form not described; also called sdAb 27; not shown: Fc part implied by anti-human Fc capture and anti-human IgG Fc detection) VHH: QVQLVESGGGLVQPGGSLRLSCAASGFTLDYYAIGWFRQAPGKEREGVSCIRSSDGSTYYADSVKGRFTISSDNTKNTVYLQMNSLKPEDTAVYYCATDRYSDCRGPYENWGQGTQVTVSS	1.18	0.097	0.198	0.408	0.79	1.13	1.28	1.21	1.26
sdAb No. 17 (VHH, Fc of the tested form not described; also called sdAb 17; not shown: Fc part implied by anti-human Fc capture and anti-human IgG1 Fc detection) VHH: QLQLVESGGGLVQPGGSLRLSCAASGLTLDGYAIGWFRQAPGKEREGLACISGSDGSTHYLDSVKGRFTISRDNGKNTMALQMNSLQFGDTAIYYCAARRGSCSGSWTYWGQGTQVTVSS	0.904	0.104	0.259	0.543	1.01	1.3	1.42	1.44	1.48
